Test results taken from the supplement of paper PMC9112550, “Optimization of the antimicrobial peptide Bac7 by deep mutational scanning” (BMC Biology, 2022).

Test system: Escherichia coli TOP10
Assay: shrunken log2 fold change of peptide-encoding DNA abundance (4.5 h post-induction vs induction); higher = less antimicrobial activity (less host growth inhibition)
Settings: time post-induction: 4.5 h; library: site-saturation at positions 5, 18, 19, 20
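Further: peptides expressed intracellularly from a pBAD plasmid library in pooled LB shake-flask culture, induced with 0.3% L-arabinose, DNA abundance read by NGS, three biological replicates, DESeq2 with apeglm shrinkage.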

Sequence | shrunken log2 fold change
RRIRRRPPRLPRPRPRPPDVPRP | 0.474
RRIRRRPPRLPRPRPRPNFAPRP | 0.0508
RRIRVRPPRLPRPRPRPFQMPRP | -0.333
RRIRERPPRLPRPRPRPQHTPRP | -0.32
RRIRQRPPRLPRPRPRPTACPRP | 0.0488
RRIRIRPPRLPRPRPRPMPHPRP | -0.0728
RRIRYRPPRLPRPRPRPLWHPRP | -0.48
RRIRIRPPRLPRPRPRPMVTPRP | -0.018
RRIRDRPPRLPRPRPRPTGHPRP | 0.502
RRIRGRPPRLPRPRPRPQPHPRP | 0.582
RRIRHRPPRLPRPRPRPYRKPRP | -1.23
RRIRGRPPRLPRPRPRPYEWPRP | -0.027
RRIRRRPPRLPRPRPRPHNSPRP | 0.0175
RRIRHRPPRLPRPRPRPPSKPRP | -0.122
RRIRGRPPRLPRPRPRPMNEPRP | 0.056
RRIRIRPPRLPRPRPRPNFFPRP | 0.00639
RRIRNRPPRLPRPRPRPQGQPRP | 0.225
RRIRPRPPRLPRPRPRPDEVPRP | 0.188
RRIRLRPPRLPRPRPRPGVHPRP | -0.308
RRIRMRPPRLPRPRPRPRHEPRP | 0.532
RRIRLRPPRLPRPRPRPHVTPRP | -0.198
RRIRGRPPRLPRPRPRPFMWPRP | 0.211

Sequence | shrunken log2 fold change
RRIRYRPPRLPRPRPRPRNPPRP | 0.0734
RRIRARPPRLPRPRPRPSQMPRP | 0.0732
RRIRYRPPRLPRPRPRPALAPRP | 0.194
RRIRIRPPRLPRPRPRPHQEPRP | -0.01
RRIRGRPPRLPRPRPRPMVCPRP | 0.55
RRIRHRPPRLPRPRPRPSRKPRP | 0.094
RRIRIRPPRLPRPRPRPIPNPRP | -0.0731
RRIRGRPPRLPRPRPRPSLHPRP | 0.316
RRIRRRPPRLPRPRPRPKHCPRP | 0.294
RRIRIRPPRLPRPRPRPLKFPRP | -0.373
RRIRERPPRLPRPRPRPKPQPRP | 0.309
RRIRLRPPRLPRPRPRPVMNPRP | -0.18
RRIRNRPPRLPRPRPRPCEIPRP | 0.0361
RRIRRRPPRLPRPRPRPVHWPRP | 0.00204
RRIRIRPPRLPRPRPRPYPRPRP | -0.311
RRIRPRPPRLPRPRPRPTLPPRP | 0.309
RRIRVRPPRLPRPRPRPPFYPRP | -0.0377
RRIRHRPPRLPRPRPRPLPNPRP | -0.156
RRIRARPPRLPRPRPRPAGSPRP | 0.0823
RRIRFRPPRLPRPRPRPGWEPRP | 0.0875
RRIRMRPPRLPRPRPRPGMHPRP | 0.186
RRIRWRPPRLPRPRPRPKHTPRP | 0.578

Sequence | shrunken log2 fold change
RRIRSRPPRLPRPRPRPEHFPRP | -0.246
RRIRSRPPRLPRPRPRPRIGPRP | 0.395
RRIRDRPPRLPRPRPRPLSAPRP | 0.379
RRIRRRPPRLPRPRPRPSGCPRP | 0.212
RRIRKRPPRLPRPRPRPWWTPRP | 0.0991
RRIRDRPPRLPRPRPRPGYYPRP | 0.117
RRIRWRPPRLPRPRPRPVPIPRP | -0.0691
RRIRWRPPRLPRPRPRPLPGPRP | 0.215
RRIRPRPPRLPRPRPRPAWMPRP | 0.372
RRIRGRPPRLPRPRPRPSLSPRP | 0.576
RRIRDRPPRLPRPRPRPSCVPRP | 0.282
RRIRHRPPRLPRPRPRPPGWPRP | 0.424
RRIRVRPPRLPRPRPRPDTQPRP | 0.0912
RRIRCRPPRLPRPRPRPAGKPRP | 0.0831
RRIRTRPPRLPRPRPRPSDYPRP | -0.278
RRIRKRPPRLPRPRPRPALFPRP | 0.497
RRIRGRPPRLPRPRPRPQYCPRP | 0.192
RRIRRRPPRLPRPRPRPDQMPRP | -0.0181
RRIRYRPPRLPRPRPRPTFHPRP | -0.649
RRIRRRPPRLPRPRPRPICRPRP | 0.378
RRIRWRPPRLPRPRPRPALHPRP | 0.277
RRIRGRPPRLPRPRPRPCTIPRP | 0.166

Sequence | shrunken log2 fold change
RRIRWRPPRLPRPRPRPLVFPRP | 0.0454
RRIRYRPPRLPRPRPRPSEAPRP | -0.096
RRIRKRPPRLPRPRPRPVWMPRP | 0.136
RRIRKRPPRLPRPRPRPVYLPRP | -0.326
RRIRSRPPRLPRPRPRPDITPRP | 0.0856
RRIRRRPPRLPRPRPRPMGQPRP | 0.267
RRIRIRPPRLPRPRPRPCLEPRP | -0.808
RRIRCRPPRLPRPRPRPIKEPRP | -0.0741
RRIRIRPPRLPRPRPRPEMIPRP | -0.0257
RRIRLRPPRLPRPRPRPSCFPRP | 0.172
RRIRDRPPRLPRPRPRPEAEPRP | 1.67
RRIRARPPRLPRPRPRPTAVPRP | 0.873
RRIRGRPPRLPRPRPRPQIAPRP | 1.94
RRIRSRPPRLPRPRPRPTPKPRP | 0.697
RRIRDRPPRLPRPRPRPACGPRP | 0.684
RRIRVRPPRLPRPRPRPQCRPRP | -0.167
RRIRSRPPRLPRPRPRPKEYPRP | 0.167
RRIRGRPPRLPRPRPRPFSRPRP | 0.612
RRIRERPPRLPRPRPRPNLSPRP | -0.15
RRIRARPPRLPRPRPRPDIGPRP | 0.0329
RRIRSRPPRLPRPRPRPCMMPRP | 0.0683
RRIRTRPPRLPRPRPRPTQYPRP | -0.207

Sequence | shrunken log2 fold change
RRIRQRPPRLPRPRPRPRLGPRP | 0.272
RRIRTRPPRLPRPRPRPRPNPRP | 0.267
RRIRRRPPRLPRPRPRPHCTPRP | -0.18
RRIRIRPPRLPRPRPRPNSQPRP | -0.523
RRIRDRPPRLPRPRPRPQVEPRP | 0.0699
RRIRIRPPRLPRPRPRPPMNPRP | -0.368
RRIRIRPPRLPRPRPRPDNHPRP | -0.0565
RRIRERPPRLPRPRPRPPNCPRP | -0.019
RRIRNRPPRLPRPRPRPRNCPRP | -0.0144
RRIRARPPRLPRPRPRPETLPRP | 1.15
RRIRTRPPRLPRPRPRPTHCPRP | 0.0158
RRIRGRPPRLPRPRPRPPVHPRP | 0.644
RRIRLRPPRLPRPRPRPLWRPRP | 0.785
RRIRPRPPRLPRPRPRPGMHPRP | 0.206
RRIRNRPPRLPRPRPRPFEEPRP | 0.0129
RRIRMRPPRLPRPRPRPSMRPRP | 0.429
RRIRRRPPRLPRPRPRPANQPRP | 0.0564
RRIRWRPPRLPRPRPRPMNKPRP | -0.267
RRIRWRPPRLPRPRPRPLTSPRP | -0.101
RRIRQRPPRLPRPRPRPTSEPRP | 0.015
RRIRCRPPRLPRPRPRPWQTPRP | -0.0433
